Laboratory results: patent US20090098142A1 (published 2009)
One block for each binder: values may come before it.

How the values were obtained:
native human IL-13 [1] = molecular target: T1, native human IL-13 (human, UniProt P35225 34-146); assay: cell-based or functional assay
FLAG-tagged NHP IL-13 = molecular target: T2, FLAG-tagged NHP IL-13 (cynomolgus monkey, UniProt Q5I6E4 21-132 (Macaca thibetana entry)); assay: competition ELISA against biotinylated mouse MJ 2-7
T2 construct: also called NHP IL-13-FLAG; FLAG NHP IL-13; not shown: FLAG tag
T2 chain: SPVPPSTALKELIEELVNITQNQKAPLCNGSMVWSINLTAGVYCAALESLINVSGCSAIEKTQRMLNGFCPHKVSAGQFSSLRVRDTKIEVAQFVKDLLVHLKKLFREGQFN
Procedure: The ability of fully humanized MJ 2-7 mAb (V1, V2 v2) to compete with biotinylated mouse MJ 2-7 Ab for binding to NHP IL-13-FLAG was evaluated by ELISA. The microtiter plates (Costar) were coated with 1 μg/ml of anti-FLAG monoclonal antibody M2 (Sigma). The FLAG NHP IL-13 protein at concentration of 10 ng/ml was mixed with 10 ng/ml of biotin labeled mouse MJ 2-7 antibody and various concentrations of unlabeled mouse and humanized MJ 2-7 antibody. The mixture was incubated for 2 hours at room temperature and then added to the anti-FLAG antibody-coated plate. Binding of FLAG NHP-IL-13/bioMJ2-7 Ab complexes was detected with streptavidin-HRP and 3,3′,5,5′-tetramethylbenzidine (TMB). […] BIACORE™ analysis also confirmed that NHP IL-13 had rapid binding to and slow dissociation to immobilized h1uMJ 2-7 v2.11.

native human IL-13 [2] = molecular target: T1, native human IL-13; assay: cell-based or functional assay; remark: listed apart in the source
[3] = molecular target: T3, cynomolgus monkey IL-13 (NHP IL-13) (cynomolgus monkey, UniProt Q5I6E4 21-132 (Macaca thibetana entry)); assay: SPR (BIACORE), antibody captured on goat anti-human IgG Fc, NHP-IL-13 at 0.09-600 nM injected, 1:1 model, 22.5 C
T3 construct: Also used here for the IL-13 found in cynomolgus monkey serum; also called non-human primate IL-13; cynomolgus IL-13
T3 chain: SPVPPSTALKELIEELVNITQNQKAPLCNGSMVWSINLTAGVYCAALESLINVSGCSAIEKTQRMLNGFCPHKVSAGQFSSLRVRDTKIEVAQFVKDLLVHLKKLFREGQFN
Procedure: (§1) For kinetic analysis, the monoclonal antibody hMJ2-7 V2-11 was captured onto the anti IgG antibody surface by injecting 40 μl of a 1 μg/ml solution. The net difference between the baseline and the point approximately 30 seconds after completion of injection was taken to represent the amount of target bound. Solutions of NHP-IL-13 at 600, 200, 66.6, 22.2, 7.4, 2.5, 0.8, 0.27, 0.09 and 0 nM concentrations were injected in triplicate at a flow rate of […] for 2 minutes, and the amount of bound material as a function of time was recorded (FIG. 8). The dissociation phase was monitored in HBS/EP buffer (10 mM HEPES, pH 7.4, containing 150 mM NaCl, 3 mM EDTA and 0.005% (v/v) Surfactant P20) for 5 minutes at the same flow rate followed by two 5 μl injections of glycine, pH 1.5, to regenerate a fully active capturing surface. All kinetic experiments were done at 22.5° C. in HBS/EP buffer. Blank and buffer effects were subtracted for each sensorgram using double referencing.

[4] = molecular target: T3, cynomolgus monkey IL-13 (NHP IL-13); assay: SPR (BIACORE), Kd=kd/ka from the kinetic rate constants
Procedure: as §1

[5] = molecular target: T3, cynomolgus monkey IL-13 (NHP IL-13); assay: sandwich ELISA, capture antibody
From the text: FIG. 20 is a series of bar graphs depicting the increases in serum IL-13 levels in individual cynomolgus monkeys treated with humanized MJ2-7 (hMJ2-7v2-11). The label in each panel (e.g., 120-452) corresponds to the monkey identification number. The “pre” sample was collected prior to administration of the antibody. The time “0” was collected 24-hours post-antibody administration, but prior to Ascaris challenge. The remaining time points were post-Ascaris challenge. The assays used to detect IL-13 levels are able to detect IL-13 in the presence of hMJ2-7v2-11 or hmAb13.2v2 antibodies. More specifically, ELISA plates (MaxiSorp; Nunc, Rochester, N.Y.), were coated overnight at 4° C. with 0.5 ug/ml mAb13.2 in PBS. Plates were washed in PBS containing 0.05% Tween-20 (PBS-Tween). NHP IL-13 standards, or serum dilutions from cynomolgus monkeys, were added and incubated for 2 hours at room temperature. Plates were washed, and 0.3 ug/ml biotinylated MJ1-64 (referred to herein as C65 antibody) was added in PBS-Tween. Plates were incubated 2 hours, room temperature, washed, and binding detected using HRP-streptavidin (Southern Biotechnology Associates) and Sure Blue substrate (Kirkegaard and Perry Labs). For detection of IL-13 in the presence of mAb13.2, the same protocol was followed, excepts that ELISA plates were coated with 0.5 ug/ml MJ2-7.

[6] = molecular target: T3, cynomolgus monkey IL-13 (NHP IL-13); assay: cell-based or functional assay
[7] = molecular target: T4, NHP-IL-13 in a complex with immobilized sIL-13Rα2-Fc (cynomolgus monkey; human, UniProt Q14627 27-343, limits assumed); assay: SPR (BIACORE), sIL-13Rα2-Fc amine-coupled to a CM5 chip, NHP-IL-13 injected, then antibody
T4 construct: not shown: human IgG1 Fc tail
Procedure: sIL-13Rα2-Fc was directly coated onto a CM5 chip by standard amine coupling. NHP-IL-13 at 100 nM concentration was injected, and its binding to the immobilized IL-13Rα2-Fc was detected by BIACORE™. An additional injection of 100 nM of anti IL-13 antibodies was added, and changes in binding were monitored.

T1 sequence (P35225 other isoform, or with tags, fused parts or gaps): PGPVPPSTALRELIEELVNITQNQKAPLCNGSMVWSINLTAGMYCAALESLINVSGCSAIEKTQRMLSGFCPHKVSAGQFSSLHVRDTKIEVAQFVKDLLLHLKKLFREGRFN

Native hIL-13 STAT6 assay IC 50, nM (native human IL-13 [1]): 1.7 nM
B4: humanized MJ 2-7 V2.7 (VH V2.7 / VL V2) (antibody, V domains shown)
VH: EVQLVESGGGLVQPGGSLRLSCAASGFNIKDTYIHWVRQAPGKGLEWVGRIDPANDNIKYDPKFQGRFTISADNAKNSLYLQMNSLRAEDTAVYYCARSEENWYDFFDYWGQGTLVTVSS
VL: DIQMTQSPSSLSASVGDRVTITCRSSQSIVHSNGNTYLEWYQQKPGKAPKLLIYKVSNRFSGVPSRFSGSGSGTDFTLTISSLQPEDFATYYCFQGSHIPYTFGGGTKVEIKR

Native hIL-13 STAT6 assay IC 50, nM (native human IL-13 [1]): 1.75 nM
B6: humanized MJ 2-7 V2.5 (VH V2.5 / VL V2) (antibody, V domains shown)
VH: EVQLVESGGGLVQPGGSLRLSCAASGFNIKDTYIHWVRQAPGKGLEWVARIDPANDNIKYDPKFQGKATISADNAKNSLYLQMNSLRAEDTAVYYCARSEENWYDFFDYWGQGTLVTVSS
VL: DIQMTQSPSSLSASVGDRVTITCRSSQSIVHSNGNTYLEWYQQKPGKAPKLLIYKVSNRFSGVPSRFSGSGSGTDFTLTISSLQPEDFATYYCFQGSHIPYTFGGGTKVEIKR

STAT6 phosphorylation assay in HT-29 cells, 0.3 ng/ml native human IL-13, IC50 (native human IL-13 [2]): 0.52 nM
koff [3]: 0.000889 s⁻¹
kon [3]: 2.05e+07 M⁻¹ s⁻¹
Kd [4]: 0.043 nM
B7: humanized MJ 2-7 V2.11 IgG1 with a mutated CH2 domain (antibody, V domains shown)
VH: EVQLVESGGGLVQPGGSLRLSCAASGFNIKDTYIHWVRQAPGKGLEWIGRIDPANDNIKYDPKFQGRFTISADNAKNSAYLQMNSLRAEDTAVYYCARSEENWYDFFDYWGQGTLVTVSS
VL: DIQMTQSPSSLSASVGDRVTITCRSSQSIVHSNGNTYLEWYQQKPGKAPKLLIYKVSNRFSGVPSRFSGSGSGTDFTLTISSLQPEDFATYYCFQGSHIPYTFGGGTKVEIKR
notes: VH V2.11 (back mutations V48I); A49G; R72A; L79A; human IgG1 with mutated CH2 and human kappa; also called hMJ2-7 V2-11; huMJ 2-7 V2.11

STAT6 phosphorylation assay in HT-29 cells, 0.3 ng/ml native human IL-13, IC50 (native human IL-13 [2]): 0.33 nM
B9: sIL-13Rα2-Fc (soluble human IL-13 receptor alpha2 with a human IgG1 Fc tail) (Fc fusion, UniProt Q14627 27-343, looked up, not shown: a dimerising Fc or GST)
chain: DTEIKVNPPQDFEIVDPGYLGYLYLQWQPPLSLDHFKECTVEYELKYRNIGSETWKTIITKNLHYKDGFDLNKGIEAKIHTLLPWQCTNGSEVQSSWAETTYWISPQGIPETKVQDMDCVYYNWQYLLCSWKPGIGVLLDTNYNLFYWYEGLDHALQCVDYIKADGQNIGCRFPYLEASDYKDFYICVNGSSENKPIRSSYFTFQLQNIVKPLPPVYLTFTRESSCEIKLKWSIPLGPIPARCFDYEIEIREDDTTLVTATVENETYTLKTTNETRQLCFVVRSKVNIYCSDDGIWSEWSDKQCWEGEDLSKKTLLR

fold decrease in STAT6 phosphorylation assay in HT-29 cells, 0.3 ng/ml native human IL-13; activity against that of MJ2-7 (native human IL-13 [2]): ~20 fold
fold decrease in monocyte CD23 expression assay, 3 ng/ml NHP IL-13; activity against that of MJ2-7 and sIL-13Rα2-Fc [6]: ~20 fold
B10: mouse monoclonal antibody C65 (antibody, V domains shown)
VH: QVQLKESGPGLVAPSQSLSITCTVSGFSLTGYGVNWVRQPPGKGLEWLGIIWGDGSTDYNSALKSRLIINKDNSKSQVFLKMNSLQTDDTARYFCARDKTFYYDGFYRGRMDYWGQGTSVTVSS
VL: DVQMIQSPSSLSASLGDIVTMTCQASQGTSINLNWFQQKPGKAPKLLIFGASNLEDGVPSRFSGSRYGTNFTLTISSLEDEDMATYFCLQHSYLPWTFGGGTKLEIK

STAT6 phosphorylation assay in HT-29 cells, 0.3 ng/ml native human IL-13, IC50 (native human IL-13 [2]): 0.48 nM
STAT6 phosphorylation assay, native human IL-13 at 1 ng/ml, IC50 (native human IL-13 [2]): ~0.293 nM
tenascin production assay in BEAS-2B cells, 3 ng/ml native human IL-13, IC50 (native human IL-13 [2]): ~0.1 nM
CD23 expression assay, non-human primate IL-13 at 1 ng/ml, IC50 [6]: ~0.242 nM
binding result [7]: no binding (tested: 100 nM)
B11: mouse monoclonal antibody MJ 2-7 (antibody, mouse IgG1, V domains shown)
VH: EVQLQQSGAELVKPGASVKLSCTGSGFNIKDTYIHWVKQRPEQGLEWIGRIDPANDNIKYDPKFQGKATITADTSSNTAYLQLNSLTSEDTAVYYCARSEENWYDFFDYWGQGTTLTVSS
VL: DVLMTQTPLSLPVSLGDQASISCRSSQSIVHSNGNTYLEWYLQKPGQSPKLLIYKVSNRFSGVPDRFSGSGSGTDFTLKISRVEAEDLGVYYCFQGSHIPYTFGGGTKLEIK
notes: also called mAb7.1.1; murine MJ2-7

Continued, binder first:

B1: humanized MJ 2-7 V2.4 (VH V2.4 / VL V2) (antibody, V domains shown)
VH: EVQLVESGGGLVQPGGSLRLSCAASGFNIKDTYIHWVRQAPGKGLEWVGRIDPANDNIKYDPKFQGRFTISRDNAKNSLYLQMNSLRAEDTAVYYCARSEENWYDFFDYWGQGTLVTVSS
VL: DIQMTQSPSSLSASVGDRVTITCRSSQSIVHSNGNTYLEWYQQKPGKAPKLLIYKVSNRFSGVPSRFSGSGSGTDFTLTISSLQPEDFATYYCFQGSHIPYTFGGGTKVEIKR
Native hIL-13 STAT6 assay IC 50, nM (native human IL-13 [1]): 17.5 nM

B2: humanized MJ 2-7 V2.2 (VH V2.2 / VL V2) (antibody, V domains shown)
VH: EVQLVESGGGLVQPGGSLRLSCAASGFNIKDTYIHWVRQAPGKGLEWVARIDPANDNIKYDPKFQGKATISRDNAKNSLYLQMNSLRAEDTAVYYCARSEENWYDFFDYWGQGTLVTVSS
VL: DIQMTQSPSSLSASVGDRVTITCRSSQSIVHSNGNTYLEWYQQKPGKAPKLLIYKVSNRFSGVPSRFSGSGSGTDFTLTISSLQPEDFATYYCFQGSHIPYTFGGGTKVEIKR
Native hIL-13 STAT6 assay IC 50, nM (native human IL-13 [1]): > 100 nM

B3: humanized MJ 2-7 V2.1 (VH V2.1 / VL V2) (antibody, V domains shown)
VH: EVQLVESGGGLVQPGGSLRLSCAASGFNIKDTYIHWVRQAPGKGLEWIGRIDPANDNIKYDPKFQGRFTISRDNAKNSLYLQMNSLRAEDTAVYYCARSEENWYDFFDYWGQGTLVTVSS
VL: DIQMTQSPSSLSASVGDRVTITCRSSQSIVHSNGNTYLEWYQQKPGKAPKLLIYKVSNRFSGVPSRFSGSGSGTDFTLTISSLQPEDFATYYCFQGSHIPYTFGGGTKVEIKR
Native hIL-13 STAT6 assay IC 50, nM (native human IL-13 [1]): 2.8 nM

B5: humanized MJ 2-7 V2 (CDR grafted; VH V2 / VL V2) (antibody, human IgG1, V domains shown)
VH: EVQLVESGGGLVQPGGSLRLSCAASGFNIKDTYIHWVRQAPGKGLEWVARIDPANDNIKYDPKFQGRFTISRDNAKNSLYLQMNSLRAEDTAVYYCARSEENWYDFFDYWGQGTLVTVSS
VL: DIQMTQSPSSLSASVGDRVTITCRSSQSIVHSNGNTYLEWYQQKPGKAPKLLIYKVSNRFSGVPSRFSGSGSGTDFTLTISSLQPEDFATYYCFQGSHIPYTFGGGTKVEIKR
notes: Expressed in COS cells with human IgG1 (IgG1mut) and human kappa constant regions; also called hMJ2-7 V2; huMJ 2-7 V2
binding result (FLAG-tagged NHP IL-13): binds
Native hIL-13 STAT6 assay IC 50, nM (native human IL-13 [1]): > 100 nM

B8: monoclonal antibody 13.2 (mAb13.2) (antibody, mouse IgG1, V domains shown)
VH: EVKLVESGGGLVKPGGSLKLSCAASGFTFISYAMSWVRQTPEKRLEWVASISSGGNTYYPDSVKGRFTISRDNARNILYLQMSSLRSEDTAMYYCARLDGYYFGFAYWGQGTTVTVSS
VL: DIVLTQSPASLAVSLGQRATISCKASESVDNYGKSLMHWYQQKPGQSPKLLIYRASNLESGIPARFSGSGSRTDFTLTINPVEADDVATYYCQQSNEDPWTFGGGTKLEIK
binding result [5]: binds
